From PMC3719477 (ACS Chemical Biology, 2013) come the findings set out here.

For this assay, the target named is KIX domain (residues 586–672) of human CREB binding protein (CBP) (human, UniProt Q92793 586-672). As to the kind of experiment: NMR solution structure.
Sequence of KIX domain (residues 586–672) of human CREB binding protein (CBP) (Q92793 586-672): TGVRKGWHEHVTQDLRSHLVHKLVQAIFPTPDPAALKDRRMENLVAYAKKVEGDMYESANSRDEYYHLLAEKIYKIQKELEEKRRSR

For DAGNILPSDIMDFVLKNTP (peptide, UniProt Q03164 2840-2858, looked up), the binding result is “binds”.
